The values below come from patent publication US20240059758A1 (CORAT THERAPEUTICS, published 2024).

Changes are numbered by the printed parent chain.

The target of assay [1] is T1, receptor binding domain (RBD) of the S1-subunit of SARS-CoV-2 glycoprotein S (SARS-CoV-2, UniProt P0DTC2 319-541). Briefly: ACE2:RBD competition assay, 5 µg/ml IgG.
Assay [2] addresses T1, receptor binding domain (RBD) of the …. Briefly: RBD-binding quality as compared to STE90-C11, wt.

B1: YU505-F03 (antibody, V domains shown)
VH: EVQLLESGAEVKKPGASVKVSCKASGYTFTGYYMHWVRQAPGQGLEWMGQINPNSGGTNYAQKFQGRVTMTRDTSISTAYMELSRLRSDDTAVYYCARGEGFDYWGQGTLVTVSS
VL: SYVLTQPPSASGTPGQRVTISCSGSSSNIGSNYVYWYQQLPGTAPKLLIYRNNQRPSGVPDRFSGSKSGTSASLAISGLRSEGEADYYCAAWDDSLSGVVFGGGTKVTVL
Regarding B1, the “ACE2:RBD inhibition with 5 µg/ml IgG [%]” value in assay [1] came to 42.2%.

B2: YU505-A01 (antibody, V domains shown)
VH: QVQLVQSGAEVKKPGASVKVSCKASGYTFTSYYMHWVRQAPGQGLEWMGIINPSGGSTSYAQKFQGRVTMTRDTSTSTVYMELSSLRSEDTAVYYCARDRHYYDSSGSSQATFLFDYWGQGTLVTVSS
VL: QSVLTQPPSVSGAPGQRVTISCTGSSSNIGAGYDVHWYQQLPGTAPKLLIYGNSNRPSGVPDRFSGSKSGTSASLAITGLQAEDEADYYCQSYDSSLNVFGTGTKLTVL
For B2, the “ACE2:RBD inhibition with 5 µg/ml IgG [%]” value in assay [1] is 102%.

B3: hybrid antibody: VL STE90-C11 (SEQ ID No. 1309) with VH YU536-D04 (SEQ ID No. 364) (antibody, V domains shown)
VH: QVQLVQSGGGLVQPGGSLRLSCAASGLTVSSNYMSWVRQAPGKGLEWVSVIYSGGSTYYADSVKGRFIISRDNSKNTLYLQMNSLRAEDTAVYYCARDLVVMGLDVWGKGTLVTVSS
VL: DIVMTQSPSFLSASVGDRVTITCRASQGISSYLAWYQQKPGKAPKLLIYAASTLQSGVPSRFSGSGSGTEFTLTISSLQPEDFATYYCQQLNSYPPFTFGPGTKVDIK
For the molecule B3, in assay [2], the binding result is on record as “binds”.

B4: hybrid antibody: VL STE90-C11 (SEQ ID No. 1309) with VH YU537-H11 (SEQ ID No. 404) (antibody, V domains shown)
VH: EVQLLESGGGLIQPGGSLRLSCAASGLTVSSNYMSWVRQAPGKGLEWVSVIYSGGSTYYADSVKGRFTISRDNSKNALYLQMNSLRAEDTAVYYCARGESGSPYGMDVWGQGTLVTVSS
VL: B3 VL
Take B4: in assay [2], the binding result was “binds”.

B5: hybrid antibody: VL YU537-H11 (SEQ ID No. 402) with VH YU536-D04 (SEQ ID No. 364) (antibody, V domains shown)
VH: B3 VH
VL: QSVLTQPPSVSAAPGQKVTISCSGSSSNIGNNYVSWYQQLPGTAPKLLIYDTNKRPSGIPDRFSGSKSGTSATLGITGLQTGDEADYYCATWDSSLSVGVFGGGTKLTVL
Regarding B5, the binding result in assay [2] is recorded as “binds”.

B6: YU519-A09 (antibody, V domains shown)
VH: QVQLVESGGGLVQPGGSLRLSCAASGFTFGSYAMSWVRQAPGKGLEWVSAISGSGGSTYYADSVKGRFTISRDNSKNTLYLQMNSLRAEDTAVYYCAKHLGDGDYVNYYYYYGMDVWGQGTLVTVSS
VL: SYVLTQPPSVSVAPRQTARITCGGNNIGSKNVHWYQQKPGQAPVLVVYDDNVRPSGIPERFSGSNSGNTATLTISRVEAGDEADYYCQVWLNSSDDVLFGGGTKVTVL
As for B6, in assay [1], the “ACE2:RBD inhibition with 5 µg/ml IgG [%]” value was determined as 35.6%.

B7: hybrid antibody: VL YU536-D04 (SEQ ID No. 362) with VH STE90-C11 (SEQ ID No. 1305) (antibody, V domains shown)
VH: QVQLVESGGGLVQPGGSLRLSCAASGLTVSSNYMSWVRQAPGKGLEWVSVIYSGGSTYYADSVKGRFTISRDDSKNTLYLQMNSLRAEDTAVYYCARDVADAFDIWGQGTMVTVSS
VL: DIQLTQSPSSLSASVGDRVTITCRASQGISSYLAWYQQKPGKAPKLLIYAASTLQSGVPSRFSGSGSGTDFTLTISSLQPEDFATYYCQQLNSYPITFGQGTKLEIK
Take B7: in assay [2], the binding result was “binds”.

B8: hybrid antibody: VL YU536-D04 (SEQ ID No. 362) with VH YU537-H11 (SEQ ID No. 404) (antibody, V domains shown)
VH: B4 VH
VL: B7 VL
Turning to B8, in assay [2], the binding result is on record as “binds”.

B9: YU505-E01 (antibody, V domains shown)
VH: QVQLVQSGAEVKKPGSSVKVSCKASGGTFSSYSIVWVRQAPGQGLEWMGGIIPIFGTTNYAQKFQGRVTITADESTSTAFMELSNLKSEDTAVYFCARSLGATRDYWGQGTLVTVSS
VL: SYVLTQPPSVSEAPRQRVTISCSGSSSNIGNNAVNWYQQLPGKAPKLLIYYDDLLPSGVSDRFSGSKSGTSASLAISGLQSEDEADYYCAAWDDSLNGPVFGGGTKVTVL
For the molecule B9, in assay [1], the “ACE2:RBD inhibition with 5 µg/ml IgG [%]” value amounted to 24%.

B10: YU505-E04 (antibody, V domains shown)
VH: QVQLVQSGAEVKKPGSSVKVSCKASGGTFSSYAISWVRQAPGQGLEWMGGIIPIFGTANYAQKFQGRVTITADESTSTAYMELSSLRSEDTAVYYCARGRGYSYGHDYWGQGTLVTVSS
VL: B9 VL with V3E, L40F, P99W, V107L
For B10, in assay [1], the “ACE2:RBD inhibition with 5 µg/ml IgG [%]” value came to 28%.

B11: YU505-A05 (antibody, V domains shown)
VH: QVQLVQSGAEVKKPGSSVKVSCKASGGTFSSYAISWVRQAPGQGLEWMGGIIPIFGTANYAQKFQGRVTITADESTSTAYMELSSLRSEDTAVYYCARSDSGYSGYGYFDYWGQGTLVTVSS
VL: QSALTQPASVSGSPGQSISISCTGTSSDVGRYNYVSWYQQHPGKAPKLMIYDVTNRPSGVSSRFSGSKSGNAASLTISGLQAEDEAEYYCTSYTSSNTLVIFGGGTKVTVL
On to B11, for which the “ACE2:RBD inhibition with 5 µg/ml IgG [%]” value in assay [1] was 52.7%.

B12: YU505-A02 (antibody, V domains shown)
VH: QVQLVESGAEVKKPGSSVKVSCKASGGTFSSYAISWVRQAPGQGLEWMGGIIPIFGTANYAQKFQGRVTITADESTSTAYMELSSLRSEDTAVYYCARQIWAYDSSGYPVPAEYFQHWGQGTLVTVSS
VL: QSVLTQPPSVSGAPGQRVTISCTGSSSNIGAGYDVHWYQQLPGTAPKLLIYGNSNRPSGVPDRFSGSKSGTSASLAITGLQAEDEADYYCQSYDSSLSGVVFGGGTKLTVL
Take B12: the “ACE2:RBD inhibition with 5 µg/ml IgG [%]” value in assay [1] stood at 43.8%.

B13: YU505-E02 (antibody, V domains shown)
VH: QVQLVQSGAEVKKPGSSVKVSCKASGGTFSSYTISWVRQAPGQGLEWMGRIIPILGIANYAQKFQGRVTITADKSTSTAYMELSSLRSEDTAVYYCARDMVSVGAAGPYYFDYWGQGTLVTVSS
VL: B12 VL with G12E, G15R, G70V, V100S
On to B13, for which the “ACE2:RBD inhibition with 5 µg/ml IgG [%]” value in assay [1] was found to be 58.8%.

B14: YU505-B06 (antibody, V domains shown)
VH: not shown
VL: SYVLTQPPSVSVAPGKTARITCGGNNIGSKSVHWYQQKPGQAPVLVIYYDSDRPSGIPERFSGSNSGNTATLTISRVEAGDEADYYCQVWDSSSDHVVFGGGTKLTVL
As to B14, the “ACE2:RBD inhibition with 5 µg/ml IgG [%]” value in assay [1] worked out at 58.5%.

B15: YU505-D02 (antibody, V domains shown)
VH: QVQLVQSGAEVKKPGSSVKVSCKASGGTFSSYAISWVRQAPGQGLEWMGGIIPIFGTANYAQKFQGRVTITADKSTSTAYMELSSLRSEDTAVYYCARETSSGWSFLDYWGQGTLVTVSS
VL: B14 VL with L105V
Turning to B15, the “ACE2:RBD inhibition with 5 µg/ml IgG [%]” value in assay [1] worked out at 49.4%.

B16: YU505-F05 (antibody, V domains shown)
VH: EVQLLESGGGVVQPGRSLRLSCAASGFTFSSYGMHWVRQAPGKGLEWVAVMSYDGSKKYYADSVKGRFTISRDNSKNTLYLQMNSLRAEDTAVYYCVTQGMDVWGQGTLVTVSS
VL: B14 VL with S1Q, Y2S, D50I, D84A, Q88H
On to B16, for which, in assay [1], the “ACE2:RBD inhibition with 5 µg/ml IgG [%]” value was determined as 26.7%.
